Test results published in patent US20030180746, “Polymorphism detection and separation” (published 2003).

Key:
RecA [1] = target: T1, RecA (Escherichia coli, UniProt P0A7G6 P0A7G6:2-353); test: EMSA; Y-arm on OligoT/OligoU
Description: (§1) We then add double-stranded nucleic acid target, which is generally ³²P-end-labeled using T4 polynucleotide kinase to facilitate detection of the complex, at a concentration of approximately 20 nM and 10 mM magnesium acetate to a final volume of 10 μl. We incubate this reaction for 10 minutes at 37° C. to allow for synapsis between to the incoming oligonucleotide and the target nucleic acid molecule. We then add the second or “annealing” oligonucleotide in 1 μl to a concentration of 640 nM (calculated for the original 10 μl reaction volume) and incubate for 10 minutes at 37° C. to allow the second oligonucleotide to anneal to the target nucleic acid. We then denature the RecA bound to the oligonucleotide:target complex by cooling the reaction to about 4° C. in an ice bath and adding 1 μl of 10% SDS. The samples are then used immediately or stored at −20° C.
Oligonucleotides used in this example. We use the OligoT/OligoU duplex as the target nucleic acid for these experiments. We use incoming DNA oligonucleotides complementary over a range of lengths to the end of the duplex target as follows: OligoV is a 20-mer with the sequence 5′-[…]-3′ (SEQ ID NO: 10); OligoW is a 25-mer with the sequence 5′-[…]-3′ (SEQ ID NO: 11); OligoX is a 30-mer (SEQ ID NO: 8); OligoY is a 35-mer with the sequence 5′-[…]-3′ (SEQ ID NO: 12); OligoZ is a 40-mer with the sequence 5′-[…]-3′ (SEQ ID NO: 13); and Oligo1 is a 46-mer with the sequence 5′-[…]-3′ (SEQ ID NO: 14). We use annealing DNA oligonucleotides complementary to the end of the duplex target (and to the incoming oligonucleotides) over a range of lengths as follows: Oligo2 is a 20-mer with the sequence 5′-[…]-3′ (SEQ ID NO: 15); Oligo4 is a 25-mer with the sequence 5′-[…]-3′ (SEQ ID NO: 16); Oligo5 is a 30-mer with the sequence 5′-[…]-3′ (SEQ ID NO: 9); Oligo6 is a 35-mer with the sequence 5′-[…]-3′ (SEQ ID NO: 17); Oligo7 is a 40-mer with the sequence 5′-[…]-3′ (SEQ ID NO: 18); and Oligo8 is a 46-mer with the sequence 5′-[…]-3′ (SEQ ID NO: 19).

RecA [2] = target: T1, RecA; test: EMSA; beta-tubulin PCR product; RecA, incoming and LNA annealing oligos all required; settings: label: 5'-biotin
RecA [3] = target: T1, RecA; test: EMSA; Y-arm on OligoT/OligoU duplex with Oligo5; almost quantitative; ATP-gamma-S, Mg2+, 37 C
Description: as §1
To test the formation of Y-arms under our assay conditions, we use a different target duplex DNA composed of two linear 67-mer oligonucleotides with sequence complementary to each other. The sequence of the first target strand, designated “OligoT”, is: 5′-[…]-3′ (SEQ ID NO: 6) and the sequence of the second target strand, designated “OligoU”, is: 3′-[…]-5′ (SEQ ID NO: 7). We use two oligonucleotides complementary to the end of the OligoT/OligoU linear target duplex in these Y-arm experiments. […]

RecA [4] = target: T1, RecA; test: EMSA; matched Hyg(rep) 8 kb plasmid target with matched PNA or LNA annealing oligo; settings: label: 5'-Cy5
Description: The target in these experiments is one of two nonsupercoiled plasmids of about 8 kb, differing in a single nucleotide. The incoming oligonucleotides are 31-mer deoxyribonucleotides labeled at the 5′ terminus with either Cy5 or Cy3; the annealing oligonucleotides are 15-mer PNA oligonucleotides acetylated at the N terminus. Deproteinization is performed by adding SDS at either 37° C. or 45° C. to aliquots of the reaction mixture and incubating at the indicated temperature for various amounts of time, after which time the aliquots are removed and placed on dry ice.
Two gels are run separately, but scanned at the same time to allow a direct comparison. Results are shown in FIGS. 18A and 18B for the 37° C. deproteinization data only.

RecA [5] = target: T1, RecA; test: EMSA; OligoA/OligoB target, opposite strand; ATP-gamma-S, Mg2+, 37 C
Description: as §1
Oligonucleotides used in this example. We use the OligoA/OligoB duplex as the target nucleic acid for these experiments. As the incoming oligonucleotide, we use either OligoC (SEQ ID NO: 3) or the complementary oligonucleotide which targets the opposite strand of the duplex target, designated “OligoD”, which has the sequence 5′-[…]-3′ (SEQ ID NO: 20).

RecA [6] = target: T1, RecA; test: pulldown; Kan plasmid isolated from tet plasmid excess; PNA annealing oligo; settings: label: 3'-BioTEG
RecA [7] = target: T1, RecA; test: EMSA; Y-arm on OligoT/OligoU; longer oligos more efficient
Description: as §1
Oligonucleotides used in this example. We use the OligoT/OligoU duplex as the target nucleic acid for these experiments. […]

RecA [8] = target: T1, RecA; test: EMSA; OligoA/OligoB 70-mer duplex target; double D-loop with OligoI or LNA OligoN; ATP-gamma-S, Mg acetate, 37 C
Description: as §1
Oligonucleotides used in this example. We employ the protocol described in Example 1 to form double D-loops between two DNA oligonucleotides and linear, duplex target DNA. The target duplex DNA is composed of two linear 70-mer oligonucleotides with sequence complementary to each other. The sequence of the first target strand, designated “OligoA”, is: 5′-[…]-3′ (SEQ ID NO: 1) and the sequence of the second target strand, designated “OligoB”, is: 3′-[…]-5′ (SEQ ID NO: 2). […]

RecA [9] = target: T1, RecA; test: EMSA; Hyg- PCR target, LNA annealing oligos; settings: label: 5'-Cy5
Excerpt: We also form double D-loops using a PCR product produced from a plasmid containing the a functional hygromycin resistance gene (Hyg⁺) or a hygromycin resistance gene containing a point mutation (Hyg⁻; FIG. 15; SEQ ID NO:______]) using primers AUR123f (5′-[…]-3′; SEQ ID NO: 45) and Hyg1560r (5′-[…]-3′; SEQ ID NO: 46). We follow the protocol described in this Example for the formation of double D-loops in the Kan⁻ PCR product using HygUDF/45G as the incoming oligonucleotide (5′-Cy™ 5-[…]-3′; SEQ ID NO: 47) and various annealing oligonucleotides as indicated in Table 2. We analyze the samples prepared by separating on a 2.5% agarose gel at 4° C. as described above.

T1 sequence (P0A7G6 2-353, one chain of several): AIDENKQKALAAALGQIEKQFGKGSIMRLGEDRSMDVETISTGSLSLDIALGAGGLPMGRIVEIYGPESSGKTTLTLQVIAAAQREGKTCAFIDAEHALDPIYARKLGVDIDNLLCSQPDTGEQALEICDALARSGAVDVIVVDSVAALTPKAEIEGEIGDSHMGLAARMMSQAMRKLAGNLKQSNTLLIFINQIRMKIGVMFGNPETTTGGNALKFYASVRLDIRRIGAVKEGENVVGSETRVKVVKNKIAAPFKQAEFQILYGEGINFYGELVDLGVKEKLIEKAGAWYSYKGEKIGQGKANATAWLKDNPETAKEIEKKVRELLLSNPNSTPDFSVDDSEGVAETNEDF

B1: OligoW incoming 25-mer (ssDNA)
DNA: GCAGACTTCTCCTCAGGAGTCAGGT
RecA [1]
  binding result: binds

B2: betaTUBwt/31D/5'Bio (ssDNA)
DNA: GGCCTGAAGATGTCGGCCACCTTCATCGGCA
RecA [2]
  binding result: binds

B3: OligoZ incoming 40-mer (ssDNA)
DNA: GCAGACTTCTCCTCAGGAGTCAGGTGCACCATGGTGTCTG
RecA [1]
  binding result: binds

B4: OligoY incoming 35-mer (ssDNA)
DNA: GCAGACTTCTCCTCAGGAGTCAGGTGCACCATGGT
RecA [1]
  binding result: binds

B5: OligoX incoming 30-mer (ssDNA)
DNA: GCAGACTTCTCCTCAGGAGTCAGGTGCACC
RecA [3]
  binding result: binds

B6: HYG(NT)D5Cy5/31C(rep) (ssDNA)
DNA: ATTTACCCGCAGGACCTATCCACGCCCTCCT
RecA [4]
  binding result: binds

B7: OligoD incoming 30-mer (ssDNA)
DNA: CTGTTGTGCCCAGTCCTAGCCGAATAGCCT
RecA [5]
  binding result: binds

B8: KAN/LDB/31t (ssDNA)
DNA: GAGGCTATTCGGCTATGACTGGGCACAACAG
RecA [6]
  binding result: binds

B9: OligoV incoming 20-mer (ssDNA)
DNA: GCAGACTTCTCCTCAGGAGT
RecA [7]
  binding result: binds

B10: OligoC incoming 30-mer (ssDNA)
DNA: AGGCTATTCGGCTACGACTGGGCACAACAG
RecA [8]
  binding result: binds

B11: HygUDF/45G incoming (ssDNA)
DNA: CGCAGCTATTTACCCGCAGGACCTATCCACGCCCTCCTACATCGA
RecA [9]
  binding result: binds

B12: Oligo1 incoming 46-mer (ssDNA)
DNA: GCAGACTTCTCCTCAGGAGTCAGGTGCACCATGGTGTCTGTTTGAG
RecA [1]
  binding result: binds
